Measured values as given in patent US4642335A, “Anthracycline compounds bound to hydrophilic polypeptides” (Ajinomoto Co., Inc., priority 1984, dated 1987).
Converted amounts (≈) assume the structure as drawn. Where two headings read alike, the source gives them in different places.

Key:
[1] = test system: Micrococcus luteus ATCC9341; test: antibacterial activity, MIC, Micrococcus luteus ATCC9341; assay type: cell-based
[2] = test system: Bacillus subtilis ATCC6633; test: antibacterial activity, MIC, Bacillus subtilis ATCC6633; assay type: cell-based
mouse L1210 leukemia = test: antitumor activity against mouse L1210 leukemia, life prolongation rate; assay type: in vivo; conditions: once a day for five days starting 24 hours after tumor cell injection, control survival day = 100%
Procedure: (§1) These HB-6 substances were tested for their antitumor activity in terms of mouse L1210 leukemia. L1210 leukemia cells (1×10^5) were abdominally injected to each mouse, and the test sample was administered once a day for consecutive five days, with the first administration being started 24 hours after injection of the tumor cells. The result is summarized in Table 1, in which the antitumor activity of each drug is expressed as life prolongation rate, taking the survival day for the control group as 100%.
as §1, with “HBW-6” for “HB-6”, “2,” for “1,”

[3] = test system: Pseudomonas aeruginosa ATCC10145; test: antibacterial activity, MIC, Pseudomonas aeruginosa ATCC10145; assay type: cell-based
Solubility = assay type: physicochemical; conditions: water and organic solvents
Isoelectric point = assay type: physicochemical

COc1cccc2c1C(=O)c1c(O)c3c(c(O)c1C2=O)C[C@@](O)(C(C)=O)C[C@@H]3O[C@H]1C[C@H](N)[C@H](O)[C@H](C)O1 [Daunomycin, daunomycin, reference compound]
MIC ([1]; read-out: MIC): 1.2 µg/mL (≈ 2.27 µM) | MIC ([2]; read-out: MIC): 5.8 µg/mL (≈ 11 µM) | Life Prolongation Rate (mouse L1210 leukemia; dose 2 mg/Kg): 145% | MIC ([3]; read-out: MIC): > 10 µg/mL

B1: NCS-apoprotein: methanol-insoluble fraction (protein moiety) of neocarzinostatin (protein, UniProt P0A3R9 35-147, looked up)
Neocarzinostatin: AAPTATVTPSSGLSDGTVVKVAGAGLQAGTAYDVGQCAWVDTGVLACNPADFSSVTADANGSASTSLTVRRSFEGFLFDGTRWGTVDCTTAACQVGLSDAAGNGPEGVAISFN
MIC [1]: > 100 µg/mL | Solubility (Solubility): Soluble in water; insoluble in methanol, ethanol, acetone, butanol and propanol | MIC [2]: > 100 µg/mL | Life Prolongation Rate (mouse L1210 leukemia; dose 2 mg/Kg): 101% | MIC [3]: > 100 µg/mL | Isoelectric point (Isoelectric point): 3.2 pH

B2: HBW-10(A): NCS-apoprotein and daunomycin bound through hydrogen bond and/or hydrophobic bond, molar ratio 1:1 (conjugate, UniProt P0A3R9 35-147, looked up)
Neocarzinostatin: AAPTATVTPSSGLSDGTVVKVAGAGLQAGTAYDVGQCAWVDTGVLACNPADFSSVTADANGSASTSLTVRRSFEGFLFDGTRWGTVDCTTAACQVGLSDAAGNGPEGVAISFN
modifications: noncovalent complex with daunomycin, 1:1
MIC [1]: 0.30 µg/mL | MIC [2]: 2.3 µg/mL | Life Prolongation Rate (mouse L1210 leukemia; dose 1 mg/Kg): 260% | MIC [3]: > 10 µg/mL

B3: HBW-21(A): NCS-apoprotein and aclacinomycin A bound together, molar ratio 1:1 (conjugate, UniProt P0A3R9 35-147, looked up)
Neocarzinostatin: AAPTATVTPSSGLSDGTVVKVAGAGLQAGTAYDVGQCAWVDTGVLACNPADFSSVTADANGSASTSLTVRRSFEGFLFDGTRWGTVDCTTAACQVGLSDAAGNGPEGVAISFN
modifications: aclacinomycin A conjugate, 1:1
Life Prolongation Rate (mouse L1210 leukemia; dose 1 mg/Kg): 135%

B4: HBW-21(B): NCS-apoprotein and aclacinomycin A bound together, molar ratio 1:5 (conjugate, UniProt P0A3R9 35-147, looked up)
Neocarzinostatin: AAPTATVTPSSGLSDGTVVKVAGAGLQAGTAYDVGQCAWVDTGVLACNPADFSSVTADANGSASTSLTVRRSFEGFLFDGTRWGTVDCTTAACQVGLSDAAGNGPEGVAISFN
modifications: complex with aclacinomycin A, 1:5
Life Prolongation Rate (mouse L1210 leukemia; dose 1 mg/Kg): 162%
